Here are results for one molecule from PMC12463132 (Advanced Science, 2025).

Ends that are not written are not given here.

The target of this assay is T1, Sec23a/Sec24a (lacking residues 1–340) (human, UniProt Q15436 1-765; O95486 341-1093).
T1 construct: Sec23a, human, full length (pFastBac1 vector); Sec24a, human, lacking residues 1-340; The results call the protein of the pull-downs 'Sec24a' or 'Sec24', the methods 'COPII protein'; also called COPII coat proteins Sec23a/Sec24a; COPII protein; source: Hi5 insect cells (baculovirus made in Sf9), purified (HisTrap, ion exchange, SEC)
Nature of the assay: pull-down; competition: phosphorylated GST-STING CTT on glutathione Sepharose 4B beads, IRF3 with Sec24; 20 mM HEPES-Na pH 7.4, 200 mM NaCl, 4 mM DTT, 0.1% Triton X-100, 4 °C; SDS-PAGE. As to conditions: both partners purified.

T1 sequence (Q15436 whole entry, chain 1 of 2, the tested form may be a part): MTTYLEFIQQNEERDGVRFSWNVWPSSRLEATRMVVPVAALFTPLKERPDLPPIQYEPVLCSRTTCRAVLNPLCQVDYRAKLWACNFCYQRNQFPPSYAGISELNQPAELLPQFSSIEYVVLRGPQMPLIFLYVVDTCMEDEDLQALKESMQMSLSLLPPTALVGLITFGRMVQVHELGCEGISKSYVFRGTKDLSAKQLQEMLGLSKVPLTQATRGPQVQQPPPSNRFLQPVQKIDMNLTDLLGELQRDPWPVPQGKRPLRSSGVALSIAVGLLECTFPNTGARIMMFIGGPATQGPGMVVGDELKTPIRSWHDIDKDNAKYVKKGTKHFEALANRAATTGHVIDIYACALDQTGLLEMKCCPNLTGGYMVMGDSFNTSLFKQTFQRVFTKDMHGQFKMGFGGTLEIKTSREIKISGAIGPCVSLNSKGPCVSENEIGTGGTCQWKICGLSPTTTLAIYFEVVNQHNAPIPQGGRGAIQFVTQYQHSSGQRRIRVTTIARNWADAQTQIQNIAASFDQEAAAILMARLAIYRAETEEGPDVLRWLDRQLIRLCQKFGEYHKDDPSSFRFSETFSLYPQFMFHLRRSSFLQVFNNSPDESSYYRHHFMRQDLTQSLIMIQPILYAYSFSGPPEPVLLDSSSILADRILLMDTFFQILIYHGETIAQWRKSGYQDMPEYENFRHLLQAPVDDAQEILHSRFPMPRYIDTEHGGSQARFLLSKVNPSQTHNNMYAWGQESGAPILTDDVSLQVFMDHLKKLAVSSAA
T1 sequence (O95486 341-1093, chain 2 of 2): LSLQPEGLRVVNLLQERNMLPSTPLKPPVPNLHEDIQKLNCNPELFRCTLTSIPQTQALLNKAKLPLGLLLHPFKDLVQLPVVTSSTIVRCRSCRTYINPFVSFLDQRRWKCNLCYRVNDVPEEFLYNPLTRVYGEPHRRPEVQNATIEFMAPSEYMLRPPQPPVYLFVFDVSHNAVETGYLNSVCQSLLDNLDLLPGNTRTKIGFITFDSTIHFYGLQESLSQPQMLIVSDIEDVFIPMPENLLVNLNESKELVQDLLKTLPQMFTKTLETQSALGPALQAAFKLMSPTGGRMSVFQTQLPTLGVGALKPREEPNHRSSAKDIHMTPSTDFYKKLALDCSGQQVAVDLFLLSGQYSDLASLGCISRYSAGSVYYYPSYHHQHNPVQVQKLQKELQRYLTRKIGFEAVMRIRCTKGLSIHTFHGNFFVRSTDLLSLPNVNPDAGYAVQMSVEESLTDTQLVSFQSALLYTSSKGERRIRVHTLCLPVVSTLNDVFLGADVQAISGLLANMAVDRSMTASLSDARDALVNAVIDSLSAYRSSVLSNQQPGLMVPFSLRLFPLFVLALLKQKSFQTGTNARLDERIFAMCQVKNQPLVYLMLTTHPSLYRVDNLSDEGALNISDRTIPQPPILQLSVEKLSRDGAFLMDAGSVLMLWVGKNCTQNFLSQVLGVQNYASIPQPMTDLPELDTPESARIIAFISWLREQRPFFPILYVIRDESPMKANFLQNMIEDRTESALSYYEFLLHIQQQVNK

B1: GST‐tagged human STING CTT (residue number: 335–379), phosphorylated (domain or fragment, UniProt Q86WV6 335-379, looked up)
chain: QEEKEEVTVGSLKTSAVPSTSTMSQEPELLISGMEKPLPLRTDFS
modifications: also: GST-tagged, phosphorylated by TBK1, sites not given here
notes: STING, human, C-terminal tail, residues 335-379; also called phosphorylated STING CTT; phosphorylated GST‐STING protein; source: phosphorylated in vitro by GST-tagged human TBK1, used directly; not shown: GST, N-terminal, kept
Turning to B1, the binding result is reported as “binds”.
